Results taken from patent publication US20170002074A1.
Values belong to the substance of their own block, whether it stands above or below them.

What was measured:
[1] = target: Full-length huCD33 membrane construct with single mutation S115A (human) (UniProt P20138); assay: FACS with APC-labelled isotype control on 293AD cells transiently expressing huCD33 S115A
[2] = target: Full-length huCD33 membrane construct with single mutation S115A (human) (UniProt P20138); assay: FACS with Dylight 650 labelled isotype control on 293AD cells transiently expressing huCD33 S115A
[3] = target: Full-length huCD33 membrane construct with single mutation S115A (human) (UniProt P20138); assay: FACS with WM53-APC (BD-Bioscience) on 293AD cells transiently expressing huCD33 S115A
[4] = target: Human CD33 (human) (UniProt P20138); assay: FACS with WM53-APC (BD-Bioscience) on HEK293AD cells stably expressing rhCD33 (positive control stain)
[5] = target: Full-length huCD33 membrane construct with double mutation S102A/S115A (human) (UniProt P20138); assay: FACS with WM53-APC (BD-Bioscience) on 293AD cells transiently expressing huCD33 S102A/S115A
[6] = target: Construct-88: irrelevant Ig-like V linked to a CD33 Ig-like C (R144-Q228 including TM/CD L229) (human); assay: FACS on 293 cells transiently transfected with construct 88, control antibody
[7] = target: Construct-88B: CD33 Ig-like V (M17-V136 including spacer H137-H143) linked to an irrelevant Ig-like C (including TM/CD) (human); assay: FACS on 293 cells transiently transfected with construct 88B, control antibody
[8] = target: huCD33 R69G variant (human) (UniProt P20138); assay: FACS, control antibody, on 293AD cells labelled 'SNPG69R', taken as the SNP variant of paragraph 650
[9] = target: Human CD33 (human) (UniProt P20138); assay: FACS on 293-hCD33 cells, isotype control of the competition experiment

Chain of Full-length huCD33 membrane construct with single mutation S115A (human) (P20138 18-364 S115A): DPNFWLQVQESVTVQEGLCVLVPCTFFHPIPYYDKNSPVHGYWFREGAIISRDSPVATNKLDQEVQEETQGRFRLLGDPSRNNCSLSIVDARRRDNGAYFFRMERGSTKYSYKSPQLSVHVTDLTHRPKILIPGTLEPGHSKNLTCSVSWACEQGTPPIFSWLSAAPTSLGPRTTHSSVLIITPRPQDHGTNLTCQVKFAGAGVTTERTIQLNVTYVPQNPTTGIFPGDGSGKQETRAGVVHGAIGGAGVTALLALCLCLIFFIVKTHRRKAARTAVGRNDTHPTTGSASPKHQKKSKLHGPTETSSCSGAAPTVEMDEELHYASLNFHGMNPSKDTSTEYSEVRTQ
Chain of huCD33 R69G variant (human) (P20138 18-364 R69G): as the sequence (P20138 18-364 S115A) above, with R52G, A98S counted along it
Chain of Human CD33 (human) (P20138 18-364): as the sequence (P20138 18-364 S115A) above, with A98S counted along it
Chain of Construct-88: irrelevant Ig-like V linked to a CD33 Ig-like C (R144-Q228 including TM/CD L229) (human) (P20138 144-364): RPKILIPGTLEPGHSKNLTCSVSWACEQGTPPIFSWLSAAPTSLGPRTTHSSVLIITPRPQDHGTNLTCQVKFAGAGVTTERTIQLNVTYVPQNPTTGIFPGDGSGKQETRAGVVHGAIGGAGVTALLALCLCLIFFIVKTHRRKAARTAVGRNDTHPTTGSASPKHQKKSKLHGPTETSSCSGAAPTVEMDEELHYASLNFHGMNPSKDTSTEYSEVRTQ
Chain of Construct-88B: CD33 Ig-like V (M17-V136 including spacer H137-H143) linked to an irrelevant Ig-like C (including TM/CD) (human) (chain, as listed by the source limits assumed, form in doubt): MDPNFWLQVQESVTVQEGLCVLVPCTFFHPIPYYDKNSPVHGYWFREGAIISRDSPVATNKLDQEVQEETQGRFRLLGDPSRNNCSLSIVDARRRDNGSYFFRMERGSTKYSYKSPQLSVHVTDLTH
Chain of Full-length huCD33 membrane construct with double mutation S102A/S115A (human) (P20138 18-364 S102A/S115A): as the sequence (P20138 18-364 S115A) above, with S85A counted along it

Geom. Mean:FL4-H [1]: 2.52
Substance: Iso-APC (antibody)

Geom. Mean:FL4-H [2]: 8.67
Substance: Iso-650 (antibody)

Geom. Mean:FL4-H [3]: 609
Geom. Mean:FL4-H [4]: 1280
Geom. Mean:FL4-H [5]: 500
Substance: WM53 (antibody)

Geom. Mean:FL4-H [6]: 13.9
Geom. Mean:FL4-H [7]: 16.7
Substance: hgD-650 (antibody)

Geom. Mean:FL1-H [8]: 5.78
Substance: mIgG1 (antibody)

Geom. Mean:FL1 [9]: 3.58
Substance: Isotype (antibody)

Geom. Mean:FL1-H [8]: 5.83
Substance: gD (antibody)
